The values below come from the supplement of paper PMC7125110.

Sequences and labels used below:
B1: glmS ribozyme (parent)
chain: AUAAAAGCGCCAGAACUACAGAAAUGUAGUUGACGAGGAGGAGGUUUAUCGAAUUUUCGGCGGAUGCCUCCAAA

Conditions in all cases: with glucosamine-6-phosphate
In data set [1] the parent is B1. The data set is described as follows: self-cleavage kobs at 40 uM GlcN6P; higher = faster cleavage; RNA array. Put shortly: (§1)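 Tracking of barcoded ribozyme variants used a hybridised Cy3 probe at 37 °C, after in situ transcription by E. coli RNA polymerase on sequenced MiSeq chips. The flowed solution held 40 μM to 10 mM glucosamine-6-phosphate in HEPES/KCl/Mg(OAc)2 buffer, and imaging ran over ~14 h. kobs was taken from exponential decay fits of normalised per-tile medians, and kcat and KM from weighted Michaelis–Menten fits.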

The variants in data set [2] derive from B1. The data set is described as follows: self-cleavage kobs at 160 uM GlcN6P; higher = faster cleavage; RNA array. Put shortly:
as §1

In data set [3] the parent is B1. The data set is described as follows: self-cleavage kobs at 640 uM GlcN6P; higher = faster cleavage; RNA array. An outline of the steps:
as §1

Variants of B1 are the subject of data set [4]. The experiment in a line: self-cleavage kobs at 2500 uM GlcN6P; higher = faster cleavage; RNA array. An outline of the steps: as §1
Variants of B1 are the subject of data set [5]. The data set is described as follows: self-cleavage kobs at 10000 uM GlcN6P; higher = faster cleavage; RNA array. An outline of the steps: as §1

± gives the standard error. Variants at the floor of the assay were thinned out. Some results are limits rather than exact numbers.

Take AUAAAACCGCCAGAACUACAGAAAUGUAGUUGUCGAGGAGGAGGUUUUUCGAAUUUUCGGCGGAUGCCUCCAAA: the “self-cleavage kobs at 40 uM GlcN6P” value with glucosamine-6-phosphate [1] is less than 1e-05 s⁻¹.

On to AUAAAAGCGCCAGAACUACAGAAAUGUAGUUGACGAGGAGGAGGUUUAUCGAAUGUUCGGCGGAUGCUUCCAAA, for which the “self-cleavage kobs at 40 uM GlcN6P” value with glucosamine-6-phosphate [1] came to 0.000294 ± 3.6e-05 s⁻¹. Further, the “self-cleavage kobs at 160 uM GlcN6P” value in the data set with glucosamine-6-phosphate [2] stood at 0.00035 ± 8.1e-05 s⁻¹. For the same variant, the “self-cleavage kobs at 640 uM GlcN6P” value with glucosamine-6-phosphate [3] was 0.00158 ± 0.00035 s⁻¹. Moreover, in the data set with glucosamine-6-phosphate [4], the “self-cleavage kobs at 2500 uM GlcN6P” value came out at 0.000382 ± 8.7e-05 s⁻¹. Also, the “self-cleavage kobs at 10000 uM GlcN6P” value with glucosamine-6-phosphate [5] turned out to be 0.00508 ± 0.00094 s⁻¹.

Take AUAAAAGCGCCAGAACUACAGAAAUGUAGUUGACGAGGAGGAGGUUUUUUGCAUUUUCGGCGCAUGCCUCUAAA: the “self-cleavage kobs at 40 uM GlcN6P” value in the data set with glucosamine-6-phosphate [1] was less than 1e-05 s⁻¹.

With AUAAAAGCGCGAGAACUACAGAAAUGUAGUUGACGAGCAGGAGGUUUAUCGAAUUUUCGGCGGAUGCCUCCAAA, the “self-cleavage kobs at 40 uM GlcN6P” value in the data set with glucosamine-6-phosphate [1] is less than 1e-05 s⁻¹. The “self-cleavage kobs at 640 uM GlcN6P” value in the data set with glucosamine-6-phosphate [3] was less than 1e-05 s⁻¹. In addition, the “self-cleavage kobs at 2500 uM GlcN6P” value in the data set with glucosamine-6-phosphate [4] was less than 1e-05 s⁻¹.

For the variant AUAAAAGCGCCAGAACUACAGAAAUGUAGUUGACCAGGAGGGGGUUUAACGAAUUUUCGGCGGAUCCCUCCAAA, the “self-cleavage kobs at 40 uM GlcN6P” value with glucosamine-6-phosphate [1] is less than 1e-05 s⁻¹. For the same variant, the “self-cleavage kobs at 2500 uM GlcN6P” value with glucosamine-6-phosphate [4] is less than 1e-05 s⁻¹. Also, the “self-cleavage kobs at 10000 uM GlcN6P” value in the data set with glucosamine-6-phosphate [5] was less than 1e-05 s⁻¹.

In the case of AUAAAAGCGCCAGAACUACAGAAAUGUAGUUGACUAGGAGGAGGAUUAUCGAAUUUUCGGCGCAUGCCUCGAAA, the “self-cleavage kobs at 40 uM GlcN6P” value in the data set with glucosamine-6-phosphate [1] is less than 1e-05 s⁻¹. The “self-cleavage kobs at 2500 uM GlcN6P” value with glucosamine-6-phosphate [4] is less than 1e-05 s⁻¹. Further, the “self-cleavage kobs at 10000 uM GlcN6P” value in the data set with glucosamine-6-phosphate [5] is less than 1e-05 s⁻¹.

Consider AUAAAAGCGCCAGAACUACAGAAAUGUAGUUAACGCGGAGGGGGUUUAUCGAAUUUUCGGCGGAUGCCUGCAAA, for which, in the data set with glucosamine-6-phosphate [1], the “self-cleavage kobs at 40 uM GlcN6P” value was less than 1e-05 s⁻¹. The “self-cleavage kobs at 10000 uM GlcN6P” value in the data set with glucosamine-6-phosphate [5] is less than 1e-05 s⁻¹.

Take AUAAAAGCGCCAGAACUACAGAAAUGUAGUUGACGAGGAGGAGGUUUAUCGAAUUUUCGUCGGGUGCCUCCAAA: the “self-cleavage kobs at 40 uM GlcN6P” value with glucosamine-6-phosphate [1] is less than 1e-05 s⁻¹. In the data set with glucosamine-6-phosphate [2], the “self-cleavage kobs at 160 uM GlcN6P” value was less than 1e-05 s⁻¹. Besides, the “self-cleavage kobs at 640 uM GlcN6P” value with glucosamine-6-phosphate [3] was less than 1e-05 s⁻¹. Moreover, in the data set with glucosamine-6-phosphate [4], the “self-cleavage kobs at 2500 uM GlcN6P” value was less than 1e-05 s⁻¹. The “self-cleavage kobs at 10000 uM GlcN6P” value in the data set with glucosamine-6-phosphate [5] is less than 1e-05 s⁻¹.

In the case of AUAAAAACGCCAGACCUACAGAAAUGUAGUUGACGAGGAGGAGGUUUAUUGAAUUUUCGGCGGAUGCCUACAAA, the “self-cleavage kobs at 40 uM GlcN6P” value with glucosamine-6-phosphate [1] worked out at 0.000237 ± 4.9e-05 s⁻¹.

For AUAAAAGCGUCAAAACUACAGAAAUGUAGUUGACGAGGAGGAGGUUUAUCGAAUUUUCGGCGGAUGACUCCAAA, the “self-cleavage kobs at 40 uM GlcN6P” value with glucosamine-6-phosphate [1] was less than 1e-05 s⁻¹. In the data set with glucosamine-6-phosphate [3], the “self-cleavage kobs at 640 uM GlcN6P” value is less than 1e-05 s⁻¹. For the same variant, the “self-cleavage kobs at 10000 uM GlcN6P” value with glucosamine-6-phosphate [5] was less than 1e-05 s⁻¹.

In the case of AUAAAAGCGCCAGAACUACAGAAAUGUAGUUGACGAGGAGGAGGUUUAUGGAAUUUUCGGCGGAUGCAUCCAAA, the “self-cleavage kobs at 40 uM GlcN6P” value with glucosamine-6-phosphate [1] is 7.16e-05 ± 9.2e-06 s⁻¹. Further, in the data set with glucosamine-6-phosphate [2], the “self-cleavage kobs at 160 uM GlcN6P” value is 0.000228 ± 3.1e-05 s⁻¹. For the same variant, the “self-cleavage kobs at 640 uM GlcN6P” value in the data set with glucosamine-6-phosphate [3] was found to be 0.000137 ± 2.4e-05 s⁻¹. The “self-cleavage kobs at 2500 uM GlcN6P” value with glucosamine-6-phosphate [4] came out at 0.000116 ± 2.1e-05 s⁻¹. Besides, the “self-cleavage kobs at 10000 uM GlcN6P” value with glucosamine-6-phosphate [5] was found to be 7.83e-05 ± 8.2e-06 s⁻¹.

For AUAAAAGCGCCAGAACUACAGAAAUGUAGUUGACGAGCAGGAUGUUUAUCGAAUUUUCGGCGGAUGCCUCCAAA, the “self-cleavage kobs at 40 uM GlcN6P” value in the data set with glucosamine-6-phosphate [1] is less than 1e-05 s⁻¹. Moreover, the “self-cleavage kobs at 160 uM GlcN6P” value with glucosamine-6-phosphate [2] is less than 1e-05 s⁻¹. Besides, in the data set with glucosamine-6-phosphate [3], the “self-cleavage kobs at 640 uM GlcN6P” value was less than 1e-05 s⁻¹. Moreover, the “self-cleavage kobs at 2500 uM GlcN6P” value with glucosamine-6-phosphate [4] is less than 1e-05 s⁻¹. Besides, in the data set with glucosamine-6-phosphate [5], the “self-cleavage kobs at 10000 uM GlcN6P” value was less than 1e-05 s⁻¹.
